Laboratory results: patent US20240384288A1, “COUMARIN TRANSPORTERS AND USES THEREOF” (BASF PLANT SCIENCE COMPANY GMBH, priority 2021, published 2024)

Test system: leaves of N. benthamiana plants
Assay: Transient expression of coumarin transporter in N. benthamiana leaves, coumarins in leaf wash water / leaves by HPLC
Assay type: in vivo
Method: Droplets of double-distilled water (30 μl) were evenly distributed on the surface of detached leaves placed in a petri dish (approx. 40 droplets on sunflower, 20 droplets on N. benthamiana). Samples were kept at RT for 24 h at high humidity. Subsequently, droplets were carefully collected without touching the leaf surface, filtered and used for HPLC analysis or germination assays.
For transient in planta overexpression assays cDNA sequences of GOIs were cloned in the plant overexpression vector pB7WG2D13 using the Gateway® cloning technology. Similar cloning steps are performed to generate transient in-planta overexpression constructs for any of the other coumarin transporter proteins A0A251U1Q8_HELAN, A0A5N6LHL1_9ASTR, A0A 1I9L1U9_ARTAN, A0A2J6KQ56_LACSA and A0A2G2ZJV1_CAPAN with A0A1S3XDP1_TOBAC as control. […]
Coumarin methanol extracts were centrifuged for 10 min at 21,000 rcf and 70 μl of the supernatant were separated via HPLC on a reverse phase C18 column (KROMAPLUS 100-5-C18 5.0, Prontosil). ddH2O and acetonitrile, both containing 1.5% (v/v) acetic acid, were used as solvents. […] Coumarin fluorescence was detected at λ=335 nm excitation and λ=460 nm emission (FP 920 Intelligent Fluorescence Detector, Jasco) or at λ=342 nm (UV absorbance). […] For quantification, a standard curve of commercial standards with known concentrations was measured.

B1: AtPDR9: already published Arabidopsis thaliana coumarin transporter, used as control (protein, UniProt Q9LFH0 1-1450, looked up)
ABC transporter G family …: MAHMVGADDIESLRVELAEIGRSIRSSFRRHTSSFRSSSSIYEVENDGDVNDHDAEYALQWAEIERLPTVKRMRSTLLDDGDESMTEKGRRVVDVTKLGAVERHLMIEKLIKHIENDNLKLLKKIRRRIDRVGMELPTIEVRYESLKVVAECEVVEGKALPTLWNTAKRVLSELVKLTGAKTHEAKINIINDVNGIIKPGRLTLLLGPPSCGKTTLLKALSGNLENNLKCSGEISYNGHRLDEFVPQKTSAYISQYDLHIAEMTVRETVDFSARCQGVGSRTDIMMEVSKREKEKGIIPDTEVDAYMKAISVEGLQRSLQTDYILKILGLDICAEILIGDVMRRGISGGQKKRLTTAEMIVGPTKALFMDEITNGLDSSTAFQIVKSLQQFAHISSATVLVSLLQPAPESYDLFDDIMLMAKGRIVYHGPRGEVLNFFEDCGFRCPERKGVADFLQEVISKKDQAQYWWHEDLPYSFVSVEMLSKKFKDLSIGKKIEDTLSKPYDRSKSHKDALSFSVYSLPNWELFIACISREYLLMKRNYFVYIFKTAQLVMAAFITMTVFIRTRMGIDIIHGNSYMSALFFALIILLVDGFPELSMTAQRLAVFYKQKQLCFYPAWAYAIPATVLKVPLSFFESLVWTCLSYYVIGYTPEASRFFKQFILLFAVHFTSISMFRCLAAIFQTVVASITAGSFGILFTFVFAGFVIPPPSMPAWLKWGFWANPLSYGEIGLSVNEFLAPRWNQMQPNNFTLGRTILQTRGMDYNGYMYWVSLCALLGFTVLFNIIFTLALTFLKSPTSSRAMISQDKLSELQGTEKSTEDSSVRKKTTDSPVKTEEEDKMVLPFKPLTVTFQDLNYFVDMPVEMRDQGYDQKKLQLLSDITGAFRPGILTALMGVSGAGKTTLLDVLAGRKTSGYIEGDIRISGFPKVQETFARVSGYCEQTDIHSPNITVEESVIYSAWLRLAPEIDATTKTKFVKQVLETIELDEIKDSLVGVTGVSGLSTEQRKRLTIAVELVANPSIIFMDEPTTGLDARAAAIVMRAVKNVADTGRTIVCTIHQPSIDIFEAFDELVLLKRGGRMIYTGPLGQHSRHIIEYFESVPEIPKIKDNHNPATWMLDVSSQSVEIELGVDFAKIYHDSALYKRNSELVKQLSQPDSGSSDIQFKRTFAQSWWGQFKSILWKMNLSYWRSPSYNLMRMMHTLVSSLIFGALFWKQGQNLDTQQSMFTVFGAIYGLVLFLGINNCASALQYFETERNVMYRERFAGMYSATAYALGQVVTEIPYIFIQAAEFVIVTYPMIGFYPSAYKVFWSLYSMFCSLLTFNYLAMFLVSITPNFMVAAILQSLFYVGFNLFSGFLIPQTQVPGWWIWLYYLTPTSWTLNGFISSQYGDIHEEINVFGQSTTVARFLKDYFGFHHDLLAVTAVVQIAFPIALASMFAFFVGKLNFQRR
Scopoletin content in leaf wash water (LWW) (transporter transiently coexpressed with F6'H1, versus biosynthesis gene without transporter): no increased coumarin secretion
Scoparone content in leaf wash water (LWW) (transporter transiently coexpressed with F6'H1 plus OMT3, versus biosynthesis genes without transporter): no increased coumarin secretion
